Results on 1 molecule are retold here after paper PMC9893541 (BMC Biology, 2023).

What all share (assay): SPR; BIAcore T-200; chimeric Fc-type 1 receptor coupled to a Series S Protein A chip; ligands 6.25-0.049 nM flowed at 50 uL/min, 300 s association, 1000 s dissociation; 20 mM HEPES pH 7.4, 350 mM NaCl, 0.005 % P-20, 0.5 mg/mL BSA, 3.4 mM EDTA; kinetic 1:1 fit (also a bivalent fit); apparent KD = kd/ka; average of N=2
Conditions in all cases: both partners purified
A general note: In SPR one partner is held on a chip, and binding of the other changes the refractive index at the surface.

For one assay, the target named is T1, GDF5 homodimer (human, UniProt P43026 382-501).
T1 construct: Growth and Differentiation Factor 5 (GDF5), mature domain; Dimer stabilised by an inter-chain disulfide bond; also called homodimeric GDF5; Growth and Differentiation Factor 5
T1 sequence (looked up): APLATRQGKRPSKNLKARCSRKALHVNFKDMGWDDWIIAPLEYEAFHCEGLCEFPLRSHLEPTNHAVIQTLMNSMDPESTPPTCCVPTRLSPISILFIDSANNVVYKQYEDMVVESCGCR

The target of the next assay is T2, BMP2/GDF5 heterodimer (human, UniProt P12643 283-396; P43026 382-501).
T2 construct: bone morphogenetic protein 2 (BMP2), mature domain; Growth and Differentiation Factor 5 (GDF5), mature domain; Made by people from two natural mature chains; disulfide-linked dimer; also called GDF5/BMP2; WT heterodimer; copies: 1 + 1
T2 sequence (P12643 283-396, one chain of several): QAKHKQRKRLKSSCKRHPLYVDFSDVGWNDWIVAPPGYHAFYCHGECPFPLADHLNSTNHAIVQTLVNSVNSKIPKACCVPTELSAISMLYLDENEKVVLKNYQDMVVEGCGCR

A further assay has as its target T3, BMP4/GDF5 heterodimer (human, UniProt P12644 293-408; P43026 382-501).
T3 construct: additional Met residue on the N-terminus of the BMP4 construct; bone morphogenetic protein 4 (BMP4), mature domain; Growth and Differentiation Factor 5 (GDF5), mature domain; Made by people from two natural mature chains; disulfide-linked dimer; also called GDF5/BMP4; copies: 1 + 1
T3 sequence 1: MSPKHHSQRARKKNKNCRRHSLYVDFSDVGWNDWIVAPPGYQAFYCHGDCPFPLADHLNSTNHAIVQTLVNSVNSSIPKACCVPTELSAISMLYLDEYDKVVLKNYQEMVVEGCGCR
T3 sequence 2: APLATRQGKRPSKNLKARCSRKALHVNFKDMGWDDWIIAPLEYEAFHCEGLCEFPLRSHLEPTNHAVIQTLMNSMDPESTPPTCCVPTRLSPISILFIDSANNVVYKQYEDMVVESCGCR

Another assay concerns the target T4, BMP2 homodimer (human, UniProt P12643 283-396).
T4 construct: bone morphogenetic protein 2 (BMP2), mature domain; cDNA received from Hongwen Ma; Dimer stabilised by an inter-chain disulfide bond; Cloned in pET21a; no tag is mentioned; also called homodimeric BMP2; bone morphogenetic protein 2

Another assay deals with T5, BMP4 homodimer (human, UniProt P12644 293-408).
T5 construct: additional Met residue on the N-terminus of the BMP4 construct; bone morphogenetic protein 4 (BMP4), mature domain; Dimer stabilised by an inter-chain disulfide bond; also called homodimeric BMP4
T5 sequence: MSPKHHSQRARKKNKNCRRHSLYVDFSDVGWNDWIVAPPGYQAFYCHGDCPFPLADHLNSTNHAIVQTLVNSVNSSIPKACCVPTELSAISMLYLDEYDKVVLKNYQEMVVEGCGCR

T4 sequence (P12643 283-396): as the sequence (P12643 283-396, one chain of several) above

B1: FC-(Alk6)2 (Fc fusion, UniProt O00238 14-126, looked up)
chain: KKEDGESTAPTPRPKVLRCKCHHHCPEDSVNNICSTDGYCFTMIEEDDSGLPVVTSGCLGLEGSDFQCRDTPIPHQRRSIECCTERNECNKDLHPTLPPLKNRDFVDGPIHHR
notes: type 1 receptor Alk6 (BMPR1B) in a recombinant chimeric Fc-receptor; also called chimeric FC-receptor; source: bought: R&D (Cat# 505-PR-100)
B1: the Kd with GDF5 homodimer was 57 pM; in the assay with BMP2/GDF5 heterodimer, 26 pM; with BMP4/GDF5 heterodimer, 46 pM; with BMP2 homodimer, 102 pM; in the assay with BMP4 homodimer it was 113 pM.
